Measured values from IntAct's records for PubMed 22575644.

B1: Serine/threonine-protein kinase STK11 (Homo sapiens), Q15831 (parent)
chain: MEVVDPQQLGMFTEGELMSVGMDTFIHRIDSTEVIYQPRRKRAKLIGKYLMGDLLGEGSYGKVKEVLDSETLCRRAVKILKKKKLRRIPNGEANVKKEIQLLRRLRHKNVIQLVDVLYNEEKQKMYMVMEYCVCGMQEMLDSVPEKRFPVCQAHGYFCQLIDGLEYLHSQGIVHKDIKPGNLLLTTGGTLKISDLGVAEALHPFAADDTCRTSQGSPAFQPPEIANGLDTFSGFKVDIWSAGVTLYNITTGLYPFEGDNIYKLFENIGKGSYAIPGDCGPPLSDLLKGMLEYEPAKRFSIRQIRQHSWFRKKHPPAEAPVPIPPSPDTKDRWRSMTVVPYLEDLHGADEDEDLFDIEDDIIYTQDFTVPGQVPEEEASHNGQRRGLPKAVCMNGTEAAQLSTKSRAEGRAPNPARKACSASSKIRRLSACKQQ
B2: 14-3-3 protein zeta/delta (Homo sapiens), P63104 (parent)
chain: MDKNELVQKAKLAEQAERYDDMAACMKSVTEQGAELSNEERNLLSVAYKNVVGARRSSWRVVSSIEQKTEGAEKKQQMAREYREKIETELRDICNDVLSLLEKFLIPNASQAESKVFYLKMKGDYYRYLAEVAAGDDKKGIVDQSQQAYQEAFEISKKEMQPTHPIRLGLALNFSVFYYEILNSPEKACSLAKTAFDEAIAELDTLSEESYKDSTLIMQLLRDNLTLWTSDTQGDEAEAGEGGEN
partner: B1 chain
B3: Serine/threonine-protein kinase STK11 (Homo sapiens), Q15831 (parent)
chain: B1 chain
partner: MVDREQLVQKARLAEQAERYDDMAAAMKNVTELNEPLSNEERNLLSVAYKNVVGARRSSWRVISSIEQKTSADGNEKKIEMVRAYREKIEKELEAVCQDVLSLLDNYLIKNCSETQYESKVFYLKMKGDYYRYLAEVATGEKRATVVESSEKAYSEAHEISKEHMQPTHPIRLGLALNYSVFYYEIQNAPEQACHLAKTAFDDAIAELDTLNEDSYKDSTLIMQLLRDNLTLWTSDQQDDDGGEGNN
B4: Serine/threonine-protein kinase STK11 (Homo sapiens), Q15831 (parent)
chain: B1 chain
partner: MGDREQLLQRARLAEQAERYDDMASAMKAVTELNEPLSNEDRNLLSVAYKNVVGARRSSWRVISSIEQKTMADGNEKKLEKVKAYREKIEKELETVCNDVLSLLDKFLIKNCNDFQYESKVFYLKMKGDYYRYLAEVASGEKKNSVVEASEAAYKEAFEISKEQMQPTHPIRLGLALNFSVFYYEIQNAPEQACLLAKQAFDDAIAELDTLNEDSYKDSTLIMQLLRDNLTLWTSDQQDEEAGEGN

Variants of: B1
Conditions: with 1433z_human YWHAZ

Variant | effect of a mutation on the interaction
T336A | disrupting interaction

Variants of: B2
Conditions: with stk11_human STK11, Q15831

Variant | effect of a mutation on the interaction
K49E | disrupting interaction

Variants of: B3
Conditions: with 1433g_human YWHAG

Variant | effect of a mutation on the interaction
T336A | disrupting interaction

Variants of: B4
Conditions: with 1433f_human YWHAH

Variant | effect of a mutation on the interaction
T336A | disrupting interaction
